Experimental findings from US6461815 are described below.

Data set [1] deals with 30S ribosomal subunit (mRNA-programmed, activated; ribonucleoprotein). Briefly: FP. Conditions: mnm5s2U34 and other native modifications; nitrocellulose filter binding (method is filter); poly(A)-programmed; CMN buffer 20 mM MgCl2, 100 mM NH4Cl, pH 7.2, 37 C then ice.
Data set [2] shares this test system. Nature of the data set: filter. As to conditions: CMN buffer 20 mM MgCl2, pH 7.2.

“E. coli tRNALys(SUU), native fully modified” yielded a Kd in data set [1] of 70 nM. That is a double-digit nanomolar value.

Turning to “UCAGACUUUUAAUCUGA [ASLLys3(SUU), s2U34 anticodon stem-loop]”, the Kd in data set [2] (s2U at tRNA position 34, poly(A)-programmed, also bound poly(AG)-programmed 30S) was 176 nM. That is a sub-micromolar value.

“yeast ASLPhe(GAA), unmodified anticodon stem-loop”: the Kd in data set [2] (poly(U)-programmed) was 136 nM.

In the case of yeast tRNAPhe(GmAA), native, in data set [2] (Gm34 and other native modifications, poly(U)-programmed), the Kd came out at 103 nM. This counts as sub-micromolar.
